Experiments:
Assay in all cases: cytokine release
[1] = target: T1, HPV16 oncoprotein E5 peptide on HLA-B*15:01 (human)
T1 peptide: LLWITAASAF

[2] = target: T2, HPV16 oncoprotein E5 peptide on HLA-B*15:01 (human)
T2 peptide: ITAASAFRCFIVY

[3] = target: T3, HPV16 oncoprotein E5 peptide on HLA-B*15:01 (human)
T3 peptide: WITAASAFRCFIVY

[4] = target: T4, HPV16 oncoprotein E5 peptide on HLA-B*15:01 (human)
T4 peptide: AASAFRCFIVY

[5] = target: T5, HPV16 oncoprotein E5 peptide on HLA-B*15:01 (human)
T5 peptide: ASAFRCFIVY

[6] = target: T6, HPV16 oncoprotein E5 peptide on HLA-B*15:01 (human)
T6 peptide: TAASAFRCFIVY

[7] = target: T7, HPV16 oncoprotein E5 peptide on HLA-B*15:01 (human)
T7 peptide: WITAASAF

[8] = target: T8, HPV16 oncoprotein E5 peptide on HLA-B*15:01 (human)
T8 peptide: LLLWITAASAF

B1: HPV16 E5-specific TCR (TRAV17 + TRBV6-5) (TCR, V domains shown)
Valpha: SQQGEEDPQALSIQEGENATMNCSYKTSINNLQWYRQNSGRGLVHLILIRSNEREKHSGRLRVTLDTSKKSSSLLITASRAADTASYFCAESEYGNKLVFGAGTILRVKS
Vbeta: NAGVTQTPKFQVLKTGQSMTLQCAQDMNHEYMSWYRQDPGMGLRLIHYSVGAGITDQGEVPNGYNVSRSTTEDFPLRLLSAAPSQTSVYFCASSYRQQETQYFGPGTRLLVL
B1: no recognition [1]; recognises [2]; recognises [3]. B1: recognises [4]; recognises [5]; recognises [6]. B1: no recognition [7]; no recognition [8].

From patent US20180073013A1 (published 2018)
